Legend:
histamine level in blood = test: Histamine level in blood of chronic fatigue syndrome subjects; assay type: in vivo, human; settings: 4 mg DAO twice a day
[1] = system: subjects diagnosed with chronic fatigue syndrome and with DAO deficit; test: Efficacy of DAO compositions in chronic fatigue syndrome, grades of improvement on the CLINIC scale; assay type: in vivo, human; settings: chronic fatigue syndrome grades II, III and IV with DAO deficit, 4 mg DAO twice a day, count of 23 subjects
Description: Oral compositions containing DAO of the present invention were tested in a total of 46 subjects diagnosed with chronic fatigue syndrome, as out-patients.
To evaluate the degree of affectation of chronic fatigue syndrome in candidate study subjects, the quality of life of these subjects was evaluated using a simple scale of 4 successive grades (I, II, III and IV), with criteria used in the clinic. This scale is used in the Chronic Fatigue Syndrome (CFS) Functional Unit in the Hospital Clinic.
The CLINIC scale consists of dividing the patients with chronic fatigue syndrome into four different grades of functional affectation depending on the effect of their fatigue on quality of life:
GRADE I: the patient is sometimes or occasionally fatigued, without significant limitation (<50%) of work or daily life activities.
GRADE II: persistent presence of fatigue, oscillating but without improvement, with marked effect (>50%) on work and also daily life activities.
GRADE IV: extreme fatigue that requires the help of other people for basic personal activities and that makes autonomy and the activities of daily life impossible.
Improvement is evaluated when the patient passes from a higher to a lower grade in terms of the number of improvement grades.

B1: diamine oxidase (protein, UniProt P19801 20-751, looked up)
Diamine oxidase …: EPSPGTLPRKAGVFSDLSNQELKAVHSFLWSKKELRLQPSSTTTMAKNTVFLIEMLLPKKYHVLRFLDKGERHPVREARAVIFFGDQEHPNVTEFAVGPLPGPCYMRALSPRPGYQSSWASRPISTAEYALLYHTLQEATKPLHQFFLNTTGFSFQDCHDRCLAFTDVAPRGVASGQRRSWLIIQRYVEGYFLHPTGLELLVDHGSTDAGHWAVEQVWYNGKFYGSPEELARKYADGEVDVVVLEDPLPGGKGHDSTEEPPLFSSHKPRGDFPSPIHVSGPRLVQPHGPRFRLEGNAVLYGGWSFAFRLRSSSGLQVLNVHFGGERIAYEVSVQEAVALYGGHTPAGMQTKYLDVGWGLGSVTHELAPGIDCPETATFLDTFHYYDADDPVHYPRALCLFEMPTGVPLRRHFNSNFKGGFNFYAGLKGQVLVLRTTSTVYNYDYIWDFIFYPNGVMEAKMHATGYVHATFYTPEGLRHGTRLHTHLIGNIHTHLVHYRVDLDVAGTKNSFQTLQMKLENITNPWSPRHRVVQPTLEQTQYSWERQAAFRFKRKLPKYLLFTSPQENPWGHKRTYRLQIHSMADQVLPPGWQEEQAITWARYPLAVTKYRESELCSSSIYHQNDPWHPPVVFEQFLHNNENIENEDLVAWVTVGFLHIPHSEDIPNTATPGNSVGFLLRPFNFFPEDPSLASRDTVIVWPRDNGPNYVQRWIPEDRDCSMPPPFSYNGTYRPV
notes: Enzyme diamine oxidase
Histamine level in blood (histamine level in blood): 2-20 micrograms/0.1 L | Number of grades of improvement: 1 (subjects) [1]: 16 of 23 | Number of grades of improvement: 2 (subjects) [1]: 4 of 23
